Laboratory results from patent US20190194350A1.

Tests used:
[1] = molecular target: His-tagged extracellular domain of EGFR (aa 20-643) (UniProt P00533); test: ELISA, coated EGFR-His
[2] = molecular target: His-tagged extracellular domain of EGFR (aa 20-643) (UniProt P00533); test: ELISA, coated EGFR-His, detection with HRP anti-human Fc antibody; the legend paragraph 41 and paragraph 295 name Cetuximab as this control, the sheet prints hu225-IgG [panel EGFR-His]

EC50 [1]: 200 pM
EC50 (read off the curve) [2]: 200 pM
B1: hu225-IgG (antibody, V domains shown)
VH: EVQLVESGGGLVQPGGSLRLSCAASGFSLTNYGVHWVRQAPGKGLEWLGVIWSGGNTDYNTPFTSRFTISRDNSKNTLYLQMNSLRAEDTAVYYCARALTYYDYEFAYWGQGTTVTVSS
VL: DIQLTQSPSFLSASVGDRVTITCRASQSIGTNIHWYQQKPGKAPKLLIKYASESISGVPSRFSGSGSGTEFTLTISSLQPEDFATYYCQQNNNWPTTFGAGTKLEIK
